This passage reports normalised SPOT signal, Boehringer light units (BLU); mean over the file's lines of this peptide results from publication PMC314469, “Protein Interaction Networks by Proteome Peptide Scanning” (PLoS Biology, 2004).

T1: Rvs167 SH3 (RV167_YEAST), P39743
T1 chain: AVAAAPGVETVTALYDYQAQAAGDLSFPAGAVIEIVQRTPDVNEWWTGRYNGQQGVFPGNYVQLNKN

T2: Boi1 SH3 (BOI1_YEAST), P38041
T2 chain: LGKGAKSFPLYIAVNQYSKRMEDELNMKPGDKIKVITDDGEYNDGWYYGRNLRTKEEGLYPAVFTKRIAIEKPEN

T3: amphyphisin SH3 (AMPH_HUMAN), P49418
T3 chain: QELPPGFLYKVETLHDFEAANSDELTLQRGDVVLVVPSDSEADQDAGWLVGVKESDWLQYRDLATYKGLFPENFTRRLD

T4: Yhr016c SH3 (YSC84_YEAST), P32793
T4 chain: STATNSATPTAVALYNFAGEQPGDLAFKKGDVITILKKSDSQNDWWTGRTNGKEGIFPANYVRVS

T5: Boi2 SH3 (BOI2_YEAST), P39969
T5 chain: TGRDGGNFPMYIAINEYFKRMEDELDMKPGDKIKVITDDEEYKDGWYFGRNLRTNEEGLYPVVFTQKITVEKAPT

T6: Yfr024 SH3 (LSB3_YEAST), P43603
T6 chain: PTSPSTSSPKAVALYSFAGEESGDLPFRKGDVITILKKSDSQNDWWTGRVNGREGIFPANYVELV

B1: YHL023C 782-795 (peptide)
chain: NIQPNIPLRSYRYL
B2: YPR055W 477-490 (peptide)
chain: NNAPTLPKRKNPKI
B3: YDL046W 61-74 (peptide)
chain: NLDPNPPVRGENLT
B4: YDR499W 189-202 (peptide)
chain: NMVPLNPNRIIPDE
B5: YPL159C 186-199 (peptide)
chain: NLKPFHPPKEKSMN
B6: YDR181C 326-339 (peptide)
chain: NKVPTNPKKFKKAP
B7: YEL062W 548-561 (peptide)
chain: NLKPERPSKVSFEM
B8: YBR239C 90-103 (peptide)
chain: NIQPDLPPRKIMIP
B9: YGL076C 93-106 (peptide)
chain: NKIPPKPRKVLQLL
B10: BAC04581 11-25 (peptide)
chain: GAGSPARPPSPRLD
B11: Q96LA8 243-256 (peptide)
chain: GEDVLARPQRFAQL
B12: O15417 267-280 (peptide)
chain: GAKGPRRPGEEAEL
B13: Q9UHX5 114-127 (peptide)
chain: GALHPPRPGRGLGQ
B14: Q96AA2 6283-6296 (peptide)
chain: GAGQPRRPEAEPGQ
B15: CAD39032 203-217 (peptide)
chain: AKLFPGRPPVKKLL
B16: Q9NXX3 159-172 (peptide)
chain: GAWPLKRPGRISSQ
B17: CAD38936 189-203 (peptide)
chain: GDAPPPRPPPPVRP
B18: Q9Y5B0 72-85 (peptide)
chain: GSVRPARPERRLRS
B19: Q9BYB0 718-731 (peptide)
chain: GAPGPRRPFQQKPL
B20: Q9BWN1 26-39 (peptide)
chain: GARSPKRPRLQLPG
B21: O94820 218-231 (peptide)
chain: GDSKLFRPRRPRSS
B22: Q9P244 448-461 (peptide)
chain: GDPAPSRPLRAHFL
B23: Q9NYR0 415-428 (peptide)
chain: GALPPRRPERPVGP
B24: O60560 190-203 (peptide)
chain: GAFQPGRPLRVVAT
B25: Q9Y6N3 202-215 (peptide)
chain: GASSIARPFRRDSQ
B26: Q92529 130-143 (peptide)
chain: GDEPLPRPPRGAPH

The target of the first experiment is T1, Rvs167 SH3 (RV167_YEAST), P39743. The experiment in a line: SPOT array.
Molecule B1 gave a normalised SPOT signal, Boehringer light units (BLU); mean over the file's lines of this peptide of 915.
Same read-out and setting: for B2 the value was 19800.
Still for that read-out and setting: for B3 the value was 26.6.
The molecule B4 yielded a normalised SPOT signal, Boehringer light units (BLU); mean over the file's lines of this peptide of 340.
On the same count and under the same terms, for B5 the value was 128.
Still for that read-out and setting: the result for B6 reads 20.2; that for B7, 805; that for B8, 33000.
Same read-out and setting: the result for B9 reads 188.

The next experiment concerns the target T2, Boi1 SH3 (BOI1_YEAST), P38041. As to the kind of experiment: SPOT array.
B1: the normalised SPOT signal, Boehringer light units (BLU); mean over the file's lines of this peptide stood at 13200.
Still for that read-out and setting: for B2 the value was 2740; for B3, 81.4; for B4, 31.3.
Still for that read-out and setting: for B5 the value was 109; for B6, 126.
Take B7: the normalised SPOT signal, Boehringer light units (BLU); mean over the file's lines of this peptide was 103.
On the same count and under the same terms, the result for B8 reads 1500; that for B9, 63.6.

The next experiment addresses T3, amphyphisin SH3 (AMPH_HUMAN), P49418. The experiment in a line: SPOT array.
B10 showed a normalised SPOT signal, Boehringer light units (BLU); mean over the file's lines of this peptide of 339.
Still for that read-out and setting: the result for B11 reads 194.
B12 returned a normalised SPOT signal, Boehringer light units (BLU); mean over the file's lines of this peptide of 0.
Still for that read-out and setting: the result for B13 reads 441.
On the same count and under the same terms, the result for B14 reads 10.5; that for B15, 93.5.
B16 yielded a normalised SPOT signal, Boehringer light units (BLU); mean over the file's lines of this peptide of 1500.
As to B17, the normalised SPOT signal, Boehringer light units (BLU); mean over the file's lines of this peptide turned out to be 1250.
The same measure, in the same setting: for B18 the value was 12500; for B19, 6.3; for B20, 18.6.
Same read-out and setting: for B21 the value was 970.
Still for that read-out and setting: for B22 the value was 9150.
As for B23, the normalised SPOT signal, Boehringer light units (BLU); mean over the file's lines of this peptide worked out at 3480.
The same measure, in the same setting: for B24 the value was 1260.
Take B25: the normalised SPOT signal, Boehringer light units (BLU); mean over the file's lines of this peptide worked out at 671.
Still for that read-out and setting: for B26 the value was 155.

The target in the next experiment is T4, Yhr016c SH3 (YSC84_YEAST), P32793. As to the kind of experiment: SPOT array.
Consider B1, for which the normalised SPOT signal, Boehringer light units (BLU); mean over the file's lines of this peptide was determined as 5920.
On the same count and under the same terms, for B2 the value was 45600; for B3, 315; for B4, 504.
On the same count and under the same terms, for B5 the value was 770; for B6, 210; for B7, 1350.
Consider B8, for which the normalised SPOT signal, Boehringer light units (BLU); mean over the file's lines of this peptide is 56900.
Same read-out and setting: the result for B9 reads 172.

In the next experiment the target is T5, Boi2 SH3 (BOI2_YEAST), P39969. As to the kind of experiment: SPOT array.
Molecule B1 showed a normalised SPOT signal, Boehringer light units (BLU); mean over the file's lines of this peptide of 760.
For the molecule B2, the normalised SPOT signal, Boehringer light units (BLU); mean over the file's lines of this peptide was 62.5.
Still for that read-out and setting: the result for B3 reads 18.3; that for B4, 143; that for B5, 72.2.
Same read-out and setting: the result for B6 reads 70.3; that for B7, 52.6; that for B8, 111.
Same read-out and setting: for B9 the value was 99.5.

The next experiment concerns the target T6, Yfr024 SH3 (LSB3_YEAST), P43603. As to the kind of experiment: SPOT array.
As for B1, the normalised SPOT signal, Boehringer light units (BLU); mean over the file's lines of this peptide was found to be 19500.
Same read-out and setting: for B2 the value was 40800; for B3, 118; for B4, 1110.
Molecule B5 yielded a normalised SPOT signal, Boehringer light units (BLU); mean over the file's lines of this peptide of 417.
On the same count and under the same terms, for B6 the value was 178.
Still for that read-out and setting: the result for B7 reads 4070; that for B8, 27200.
B9 came in with a normalised SPOT signal, Boehringer light units (BLU); mean over the file's lines of this peptide of 1730.

The next experiment deals with endophilin SH3 (SH3G2_HUMAN), Q99962. As to the kind of experiment: SPOT array.
Regarding B10, the normalised SPOT signal, Boehringer light units (BLU); mean over the file's lines of this peptide amounted to 15300.
Still for that read-out and setting: the result for B11 reads 7.6; that for B12, 39.5.
On the same count and under the same terms, the result for B13 reads 78.6; that for B14, -0; that for B15, 13400.
Still for that read-out and setting: for B16 the value was 213; for B17, 14700; for B18, 18700.
Turning to B19, the normalised SPOT signal, Boehringer light units (BLU); mean over the file's lines of this peptide stood at 2000.
On to B20, for which the normalised SPOT signal, Boehringer light units (BLU); mean over the file's lines of this peptide turned out to be 1210.
On to B21, for which the normalised SPOT signal, Boehringer light units (BLU); mean over the file's lines of this peptide is 233.
As to B22, the normalised SPOT signal, Boehringer light units (BLU); mean over the file's lines of this peptide amounted to 5050.
Consider B23, for which the normalised SPOT signal, Boehringer light units (BLU); mean over the file's lines of this peptide was 13800.
The molecule B24 came in with a normalised SPOT signal, Boehringer light units (BLU); mean over the file's lines of this peptide of 148.
The same measure, in the same setting: the result for B25 reads 120.
B26 had a normalised SPOT signal, Boehringer light units (BLU); mean over the file's lines of this peptide of 253.
